# B1: Flagellar biosynthesis protein FlhF (Bacillus subtilis), Q01960 (parent)
# chain: MKIKKFTAASMQEAALLIRKELGNEAVILNSKKIKKRKWFGLVNKPAVEVIAVLDQDFLEKKTPQKAAEPKQTLKTPVSSPKIEERTYPPQIPAQQELGDFSAYQSVLPEPLRKAEKLLQETGIKESTKTNTLKKLLRFSVEAGGLTEENVVGKLQEILCDMLPSADKWQEPIHSKYIVLFGSTGAGKTTTLAKLAAISMLEKHKKIAFITTDTYRIAAVEQLKTYAELLQAPLEVCYTKEEFQQAKELFSEYDHVFVDTAGRNFKDPQYIDELKETIPFESSIQSFLVLSATAKYEDMKHIVKRFSSVPVNQYIFTKIDETTSLGSVFNILAESKIGVGFMTNGQNVPEDIQTVSPLGFVRMLCR
# partner: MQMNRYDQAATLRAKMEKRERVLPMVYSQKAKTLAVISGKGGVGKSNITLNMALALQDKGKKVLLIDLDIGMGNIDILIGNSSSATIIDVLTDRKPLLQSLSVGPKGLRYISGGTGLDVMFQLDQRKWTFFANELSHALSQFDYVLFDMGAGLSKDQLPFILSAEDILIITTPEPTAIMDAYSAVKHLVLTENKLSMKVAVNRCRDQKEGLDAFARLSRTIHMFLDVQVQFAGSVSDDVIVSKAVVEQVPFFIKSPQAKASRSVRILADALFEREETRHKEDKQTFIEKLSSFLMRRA
# B2: Flagellum site-determining protein YlxH (Bacillus subtilis), P40742 (parent)
# chain: B1 partner
# partner: B1 chain
# Variants of: B1
# Details: with ylxh_bacsu ylxH
row,effect of a mutation on the interaction,Variant
1,disrupting interaction,R216A

# Variants of: B2
# Details: with flhf_bacsu flhF
row,effect of a mutation on the interaction,Variant
1,disrupting interaction,Q8A
